Test results reported in patent US20260250318A1, “COMPOSITIONS AND METHODS FOR CROSSING THE BLOOD BRAIN BARRIER” (VOYAGER THERAPEUTICS, INC., priority 2022, published 2026).

Columns and labels:
[1] = target: T1, human ALPL expressed on cells (alkaline phosphatase tissue-nonspecific isozyme, NM_000478.4) (human, UniProt P05186 18-501); test: cell-based or functional assay
T1 sequence: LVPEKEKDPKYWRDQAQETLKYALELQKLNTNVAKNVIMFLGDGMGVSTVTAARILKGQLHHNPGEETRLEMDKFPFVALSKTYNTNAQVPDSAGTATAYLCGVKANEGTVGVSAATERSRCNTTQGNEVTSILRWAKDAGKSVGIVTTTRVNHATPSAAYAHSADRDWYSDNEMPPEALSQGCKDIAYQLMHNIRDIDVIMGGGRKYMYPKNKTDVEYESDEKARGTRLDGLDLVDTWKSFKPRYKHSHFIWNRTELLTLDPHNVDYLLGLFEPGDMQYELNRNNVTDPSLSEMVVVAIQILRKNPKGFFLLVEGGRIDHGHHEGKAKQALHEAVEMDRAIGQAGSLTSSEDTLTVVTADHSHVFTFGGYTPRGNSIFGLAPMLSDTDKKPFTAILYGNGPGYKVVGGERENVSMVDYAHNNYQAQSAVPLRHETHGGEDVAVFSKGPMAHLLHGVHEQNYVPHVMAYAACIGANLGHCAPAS

[2] = system: mouse cells derived from the midbrain area; test: scRNA-Seq and IHC of midbrain cells transduced by TTM-002; format: in vivo, SCID CB17 mice; details: for % GFP Cells/Cluster: AAV_TTM-002.GFP particles, GFP sorted midbrain cells; for % GFP Cells/Cluster / % Payload Cells/Cluster: 28 days; for % Payload Cells/Cluster: AAV_TTM-002.payload particles, midbrain scRNA-Seq
Protocol: AAV particles were generated with the TTM-002 capsid variant encapsulating a GFP transgene (AAV_TTM-002.GFP) or a payload driven by a heterologous CBA constitutive promoter (AAV_TTM-002.Payload).
Two tandem single cell RNA sequencing runs (scRNA-Seq) of mouse cells derived from the midbrain area were performed. In the first run, cells were pooled from two mice at day 28 post treatment with AAV_TTM-002.Payload particles. In the second run we treated with AAV_TTM-002.GFP particles, in the same manner but without xenografts. Orthotopic xenografts of MDA-MB-361-Luc #1 high passage cells grown as tumorspheres (in tumorsphere media; Sigma #C-28070) were injected (250,000 cells/2 μL/mouse) intracranially into 2-month old female SCID CB17 (Mutation: Icr-Prkdcscid/IcrIcoCrl) congenic immunodeficient mice (Charles River Laboratories). The injections were 2.5 mm (lateral),-1 mm (posterior) with respect to bregma, lowered-3 mm ventral and raised +0.5 mm dorsal to a final-2.5 mm ventral position. Two days later, dilutions of the AAV_TTM-002.Payload particles (run 1), or in the case without xenografts, dilutions of AAV_TTM-002.GFP particles (run 2) were prepared. IV injections of 100 μL (2.5e11 VG/animal) of the AAV_TTM-002.payload particles or AAV_TTM-002.GFP particles were administered through the tail veins of mice (n=5 mice per groups). At 7 days post-injection, mice from run 1 were imaged in an AmiHTX (Spectral Imager) for bioluminescence of the human tumor cells due to expression of luciferase in response to intraperitoneal luciferin injections.
At 28 days post-injection with the AAV_TTM-002.payload particles or AAV_TTM-002.GFP particles, two mice from each run were necropsied, brain samples were isolated, and the midbrain was dissected and isolated. The midbrain samples were then exposed to a cold protease inhibitor (Creative Biomart #NATE-0633) and were dissociated at 6 degrees centigrade. For the samples collected from the mice of run 1 (AAV_TTM-002.Payload particles), myelin depletion was performed (Miltenyi, #130-096-731), cells were filtered through a […] mesh to filter out neurons) and loaded on a 10X chromium G chip. scRNA-Seq was performed (10X Genomics) and samples were sequenced on a NextGen500 Sequencing machine (Illumina). For the samples collected from run 2 (AAV_TTM-002.GFP particles and no xenografts), the cells were not myelin depleted or filtered through […] mesh to include neurons. The cells isolated after run 2 were FACS sorted for GFP+/7AAD− (live GFP+ cells). The resultant cells were loaded on a 10× chromium G chip and the scRNA-Seq was run and processed (10× Genomics).
For run 1, the scRNA-Seq data was filtered to include cells with only greater than 1000 genes per cell and less than 5000, and less than 20 percent mitochondrial gene expression. For run 2, the scRNA-Seq data was filtered to include cells with only greater than 200 genes per cell and less than 5000, and less than 20 percent mitochondrial gene expression. The data were normalized, scaled, and integrated into one combined dataset. Clusters were generated with a resolution of 0.3 and each cluster identity was determined using a panel of cell type specific genes (e.g., as described in Brown et al., 2021. “Deep Parallel Characterization of AAV Tropism and AAV-Mediated Transcriptional Changes via Single-Cell RNA Sequencing”. Front. Immunol. 12:730825; the contents of which are hereby incorporated by reference in its entirety). The percentage of GFP sorted cells per cluster was calculated as was the percentage of payload expressing genes per cluster as parallel measures of TTM-002 transduction.

[3] = cluster Vascular smooth muscle cells (VSC)

B1: TTM-002 capsid variant (AAV particle comprising the TTM-002 AAV9 capsid variant) (other)
chain 1: MAADGYLPDWLEDNLSEGIREWWALKPGAPQPKANQQHQDNARGLVLPGYKYLGPGNGLDKGEPVNAADAAALEHDKAYDQQLKAGDNPYLKYNHADAEFQERLKEDTSFGGNLGRAVFQAKKRLLEPLGLVEEAAKTAPGKKRPVEQSPQEPDSSAGIGKSGAQPAKKRLNFGQTGDTESVPDPQPIGEPPAAPSGVGSLTMASGGGAPVADNNEGADGVGSSSGNWHCDSQWLGDRVITTSTRTWALPTYNNHLYKQISNSTSGGSSNDNAYFGYSTPWGYFDFNRFHCHFSPRDWQRLINNNWGFRPKRLNFKLFNIQVKEVTDNNGVKTIANNLTSTVQVFTDSDYQLPYVLGSAHEGCLPPFPADVFMIPQYGYLTLNDGSQAVGRSSFYCLEYFPSQMLRTGNNFQFSYEFENVPFHSSYAHSQSLDRLMNPLIDQYLYYLSKTINGHDSPHKSGQNQQTLKFSVAGPSNMAVQGRNYIPGPSYRQQRVSTTVTQNNNSEFAWPGASSWALNGRNSLMNPGPAMASHKEGEDRFFPLSGSLIFGKQGTGRDNVDADKVMITNEEEIKTTNPVATESYGQVATNHQSAQAQAQTGWVQNQGILPGMVWQDRDVYLQGPIWAKIPHTDGNFHPSPLMGGFGMKHPPPQILIKNTPVPADPPTAFNKDKLNSFITQYSTGQVSVEIEWELQKENSKRWNPEIQYTSNYYKSNNVEFAVNTEGVYSEPRPIGTRYLTRNL
chain 2: TAPGKKRPVEQSPQEPDSSAGIGKSGAQPAKKRLNFGQTGDTESVPDPQPIGEPPAAPSGVGSLTMASGGGAPVADNNEGADGVGSSSGNWHCDSQWLGDRVITTSTRTWALPTYNNHLYKQISNSTSGGSSNDNAYFGYSTPWGYFDFNRFHCHFSPRDWQRLINNNWGFRPKRLNFKLFNIQVKEVTDNNGVKTIANNLTSTVQVFTDSDYQLPYVLGSAHEGCLPPFPADVFMIPQYGYLTLNDGSQAVGRSSFYCLEYFPSQMLRTGNNFQFSYEFENVPFHSSYAHSQSLDRLMNPLIDQYLYYLSKTINGHDSPHKSGQNQQTLKFSVAGPSNMAVQGRNYIPGPSYRQQRVSTTVTQNNNSEFAWPGASSWALNGRNSLMNPGPAMASHKEGEDRFFPLSGSLIFGKQGTGRDNVDADKVMITNEEEIKTTNPVATESYGQVATNHQSAQAQAQTGWVQNQGILPGMVWQDRDVYLQGPIWAKIPHTDGNFHPSPLMGGFGMKHPPPQILIKNTPVPADPPTAFNKDKLNSFITQYSTGQVSVEIEWELQKENSKRWNPEIQYTSNYYKSNNVEFAVNTEGVYSEPRPIGTRYLTRNL
chain 3: MASGGGAPVADNNEGADGVGSSSGNWHCDSQWLGDRVITTSTRTWALPTYNNHLYKQISNSTSGGSSNDNAYFGYSTPWGYFDFNRFHCHFSPRDWQRLINNNWGFRPKRLNFKLFNIQVKEVTDNNGVKTIANNLTSTVQVFTDSDYQLPYVLGSAHEGCLPPFPADVFMIPQYGYLTLNDGSQAVGRSSFYCLEYFPSQMLRTGNNFQFSYEFENVPFHSSYAHSQSLDRLMNPLIDQYLYYLSKTINGHDSPHKSGQNQQTLKFSVAGPSNMAVQGRNYIPGPSYRQQRVSTTVTQNNNSEFAWPGASSWALNGRNSLMNPGPAMASHKEGEDRFFPLSGSLIFGKQGTGRDNVDADKVMITNEEEIKTTNPVATESYGQVATNHQSAQAQAQTGWVQNQGILPGMVWQDRDVYLQGPIWAKIPHTDGNFHPSPLMGGFGMKHPPPQILIKNTPVPADPPTAFNKDKLNSFITQYSTGQVSVEIEWELQKENSKRWNPEIQYTSNYYKSNNVEFAVNTEGVYSEPRPIGTRYLTRNL
[1]
  transcytosis assay: virus detected in the bottom chamber (percent to the initial virus, qPCR), MDCK ALPL overexpressing cells against MDCK cells that did not express ALPL: 149 fold
  transcytosis assay: virus detected in the bottom chamber (percent to the initial virus, qPCR), MDCK ALPL overexpressing cells, TTM-002 against AAV9: 252 fold
  transcytosis assay: virus detected in the bottom chamber (percent to the initial virus, qPCR), single MDCK clone expressing ALPL, TTM-002 against AAV9: 7480 fold

B2: TTM-002: AAV9 capsid variant comprising HDSPHK (SEQ ID NO: 2) in loop IV (protein)
chain 1: B1 chain 1
chain 2: GHDSPHKSGQNQQT
[2]; brain samples, AAV_TTM-002.GFP
  IHC co-staining of GFP with cell markers: GFP co-localized with some but not all Olig2+ cells
[2]; cluster Astrocyte
  % GFP Cells/Cluster: 2.37%
  % Payload Cells/Cluster: 4.50%
[2]; cluster Committed Oligos-2
  % GFP Cells/Cluster: 0.00%
  % Payload Cells/Cluster: 0.00%
[2]; cluster Committed Oligos
  % GFP Cells/Cluster: 0.00%
  % Payload Cells/Cluster: 1.90%
[2]; cluster Endothelial-1
  % GFP Cells/Cluster: 3.45%
  % Payload Cells/Cluster: 3.09%
[2]; cluster Endothelial-2
  % GFP Cells/Cluster: 6.58%
  % Payload Cells/Cluster: 6.58%
[2]; cluster Macrophages
  % GFP Cells/Cluster: 0.00%
  % Payload Cells/Cluster: 0.00%
[2]; cluster Mature Oligos
  % GFP Cells/Cluster: 0.00%
  % Payload Cells/Cluster: 3.85%
[2]; cluster Microglia
  % GFP Cells/Cluster: 0.00%
  % Payload Cells/Cluster: 0.40%
[2]; cluster Oligodendrocytes
  % GFP Cells/Cluster: 0.00%
  % Payload Cells/Cluster: 0.00%
[2]; cluster Pericytes
  % GFP Cells/Cluster: 0.77%
  % Payload Cells/Cluster: 4.23%
[2]; cluster Vascular and leptomeningeal Cells (VLM)
  % GFP Cells/Cluster: 2.38%
[2]; cluster Vascular and leptomeningeal cells (VLM)
  % Payload Cells/Cluster: 0.00%
[2]; [3]
  % GFP Cells/Cluster: 1.03%
  % Payload Cells/Cluster: 1.72%
[2]; scRNA-Seq, AAV_TTM-002.Payload, day 28
  proportion of payload positive cells per cell type: endothelial cells had the highest proportion of payload positive cells
[2]; scRNA-Seq, GFP+ sorted cells, AAV_TTM-002.GFP, day 28
  proportion of GFP positive cells per cell type: endothelial cells had the highest proportion of GFP positive cells
